Reference: patent US20190352359A1 (IMMATICS BIOTECHNOLOGIES, published 2019)

Target: T1, HLA-A*24
T1 construct: Monomers captured on streptavidin plates; also called peptide-receptive MHC molecules; MHC complexes
Experiment: UV peptide-exchange ELISA (anti-b2m); yield grade ++++ = >75%
Source text: Candidate peptides for T cell based therapies according to the present invention were further tested for their MHC binding capacity (affinity). The individual peptide-MHC complexes were produced by UV-ligand exchange, where a UV-sensitive peptide is cleaved upon UV-irradiation, and exchanged with the peptide of interest as analyzed. Only peptide candidates that can effectively bind and stabilize the peptide-receptive MHC molecules prevent dissociation of the MHC complexes. To determine the yield of the exchange reaction, an ELISA was performed based on the detection of the light chain (p2m) of stabilized MHC complexes. The assay was performed as generally described in Rodenko et al. (Rodenko et al., 2006)
96 well MAXISorp plates (NUNC) were coated over night with 2 ug/ml streptavidin in PBS at room temperature, washed 4× and blocked for 1 h at 37° C. in 2% BSA containing blocking buffer. Refolded HLA-A*02:01/MLA-001 monomers served as standards, covering the range of 15-500 ng/ml. Peptide-MHC monomers of the UV-exchange reaction were diluted 100-fold in blocking buffer. Samples were incubated for 1 h at 37° C., washed four times, incubated with 2 ug/ml HRP conjugated anti-β2m for 1h at 37° C., washed again and detected with TMB solution that is stopped with […]. Absorption was measured at 450 nm. Candidate peptides that show a high exchange yield (preferably higher than 50%, most preferred higher than 75%) are generally preferred for a generation and production of antibodies or fragments thereof, and/or T cell receptors or fragments thereof, as they show sufficient avidity to the MHC molecules and prevent dissociation of the MHC complexes.

| Binder | peptide exchange yield [%] |
| --- | --- |
| KYKDHFTEI (also called KYKDHFTEI) [MAGEB1-001] | > 75 |
| QYIPTFHVY (also called QYIPTFHVY) [SLC44A5-003] | > 75 |
| EYIDEFQSL (also called EYIDEFQSL) [RTL-003] | > 75 |
| DYIQMIPEL (also called DYIQMIPEL) [RTL-002] | > 75 |
| IFMENAFEL (also called IFMENAFEL) [APOB-079] | > 75 |
| LYITKVTTI (also called LYITKVTTI) [FSTL4-002] | > 75 |
| VHMKDFFYF (also called VHMKDFFYF) [DYRK4-001] | > 75 |
| GYFGTASLF (also called GYFGTASLF) [SLC16A14-001] | > 75 |
| MYGIVIRTI (also called MYGIVIRTI) [NPSR-001] | > 75 |
| IYTDITYSF (also called IYTDITYSF) [CHRNA6-002] | > 75 |
| AWSPPATLFLF (also called AWSPPATLFLF) [LOXL4-003] | > 75 |
| PYFSPSASF (also called PYFSPSASF) [SPER-001] | > 75 |
| KMGRIVDYF (also called KMGRIVDYF) [GABRP-003] | > 75 |
| VYSDLHAFY (also called VYSDLHAFY) [MANEAL-004] | > 75 |
| RYADLLIYTY (also called RYADLLIYTY) [MYO3B-005] | > 75 |
| VYLTWLPGL (also called VYLTWLPGL) [IFNLR-001] | > 75 |
| KYNRQSMTL (also called KYNRQSMTL) [APOB-080] | > 75 |
| RYAHTLVTSVLF (also called RYAHTLVTSVLF) [ITIH6-003] | > 75 |
| LQPQPQLFFSF (also called LQPQPQLFFSF) [POT-002] | > 75 |
| VYTVGHNLI (also called VYTVGHNLI) [KLB-003] | > 75 |

| Binder | peptide exchange yield [%] |
| --- | --- |
| SYPKELMKF (also called SYPKELMKF) [MROH2A-004] | > 75 |
| NYMDTDNLMF (also called NYMDTDNLMF) [LOC1001246-002] | > 75 |
| RFLDRGWGF (also called RFLDRGWGF) [ADAMTS12-005] | > 75 |
| VYCSLDKSQF (also called VYCSLDKSQF) [RTL-004] | > 75 |
| FYPEVELNF (also called FYPEVELNF) [MMP1-009] | > 75 |
| VYAVISNIL (also called VYAVISNIL) [TNR-003] | > 75 |
| GYFGNPQKF (also called GYFGNPQKF) [LAMA3-002] | > 75 |
| EVYQKIILKF (also called EVYQKIILKF) [PASD-001] | > 75 |
| VYLASVAAF (also called VYLASVAAF) [SLC45A3-006] | > 75 |
| NYPEGAAYEF (also called NYPEGAAYEF) [ESR1-008] | > 75 |
| YQSRDYYNF (also called YQSRDYYNF) [AR-002] | > 75 |
| RYENVSILF (also called RYENVSILF) [ADCY8-001] | > 75 |
| SYLWTDNLQEF (also called SYLWTDNLQEF) [DNAH17-003] | > 75 |
| HWSHITHLF (also called HWSHITHLF) [DPY19L1-003] | > 75 |
| KWKPSPLLF (also called KWKPSPLLF) [GPR126-002] | > 75 |
| FYHEDMPLW (also called FYHEDMPLW) [FCRL5-004] | > 75 |
| VYDYIPLLL (also called VYDYIPLLL) [MROH2A-005] | > 75 |
| IQNAILHLF (also called IQNAILHLF) [OR51B5-001] | > 75 |
| KFLTHDVLTELF (also called KFLTHDVLTELF) [TRPM8-009] | > 75 |
| IYFATQVVF (also called IYFATQVVF) [SLC45A3-004] | > 75 |

Continued, values first:

| peptide exchange yield [%] | Binder |
| --- | --- |
| > 75 | LYHNWRHAF (also called LYHNWRHAF) [PDE11-002] |
| > 75 | SFISPRYSWLF (also called SFISPRYSWLF) [SPNS3-005] |
| > 75 | AYFVAMHLF (also called AYFVAMHLF) [TENM4-007] |
| > 75 | IYLVGGYSW (also called IYLVGGYSW) [KLHL14-007] |
| > 75 | TYIDFVPYI (also called TYIDFVPYI) [TEX15-001] |
| > 75 | KLPTEWNVL (also called KLPTEWNVL) [AKAP13-005] |
| > 75 | FYIRRLPMF (also called FYIRRLPMF) [CHRNA6-001] |
| > 75 | IFMGAVPTL (also called IFMGAVPTL) [LPAR3-001] |
| > 75 | IYMTTGVLL (also called IYMTTGVLL) [TDRD9-002] |
| > 75 | EYQQYHPSL (also called EYQQYHPSL) [CLEC4C-001] |
| > 75 | AAFISVPLLI (also called AAFISVPLLI) [TAS2R38-002] |
| > 75 | RYILEPFFI (also called RYILEPFFI) [SLC7A11-007] |
| > 75 | KYVGEVFNI (also called KYVGEVFNI) [DMXL1-001] |
| > 75 | RYQSVIYPF (also called RYQSVIYPF) [AGTR2-002] |
| > 75 | QYGFNYNKF (also called QYGFNYNKF) [PNLD-002] |
| > 75 | QYLSIAERAEF (also called QYLSIAERAEF) [MSX-001] |
| > 75 | VYNNNSSRF (also called VYNNNSSRF) [MYO10-003] |
| > 75 | VYKWTEEKF (also called VYKWTEEKF) [TSPE-001] |
| > 75 | YYAADQWVF (also called YYAADQWVF) [CCR4-004] |
| > 75 | RYLEEHTEF (also called RYLEEHTEF) [MROH2A-003] |
| > 75 | NFYLFPTTF (also called NFYLFPTTF) [PNLD-001] |
| > 75 | AFISVPLLI (also called AFISVPLLI) [TAS2R38-003] |
| > 75 | IYANVTEMLL (also called IYANVTEMLL) [CYP27C-001] |
| > 75 | TYETVMTFF (also called TYETVMTFF) [BTBD16-003] |
| > 75 | VYDSIWCNM (also called VYDSIWCNM) [SCGB2A1-001] |
| > 75 | FYQPDLKYLSF (also called FYQPDLKYLSF) [NLRP4-003] |
| > 75 | NYSPVTGKF (also called NYSPVTGKF) [OTOL-001] |
